In the nanobody polyreactivity screen of Harvey et al. (2022):

Assay: yeast display, Sf9 membrane polyspecificity reagent, FACS + sequencing; frameworks hold sequencing errors
Outline: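 Sorting gates, low and high (top ~1%), were placed on anti-HA fluorescence to track expression and on streptavidin fluorescence to track reagent binding. A clone's polyreactivity label is taken from the gate it came out of. The reagent was 10% biotinylated, detergent-solubilized Sf9 membrane, applied for 1 hour at 4 °C to galactose-induced yeast display cells.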

Sequence | polyreactivity (PSR sort gate)
QVQLVESGGGLVQAGGSLRLSCSASGRTFWRYAMGWYRQAPGKERELVAAISSGGRTNYADSVKGRFTISRDNAKNTVYLQMNSLIPEDTAVYYCAADSYYGYGYWGQGTQVTVSS | high polyreactivity
QVQLVESGGGLVQAGGSLRLSCAASGRTFRGNAMGWYRQAPGKERELVAAINWGVGSTYYADSVKGRFTISRDNAKNTVYLQMNSLKPEDTAVYYCATRSYRGRDGFGYWGQGTQVTVSS | high polyreactivity
QVQVVESGGGLVQAGGSLRLSCAASGRIFRANAMGGYRKAPGKERELVADISRSAGSTYYADSVKGRFTISRDNAKNTVYLQLNSLKPADTAVYYCAKRGYYSFDYWGQGTQVTVSS | high polyreactivity
QVQLVESGGGLVQAGGSLRLSCAASGFTFYRYAMGWYRPATGKERELVATISASGGSTYYADSVKGRFTISRDNAKNTVYLQMNSLKPEDTAVYYCAVRYKSWYGFNYWGQGTQVTVSS | high polyreactivity
QVQLVESGGGLVQAGGSLRLSCAASGSTLGYYAMGWYRQAPGKERELVATITRSGGNTYYADSVKGRFTISRDNAKNTVYLQMNSLKPEDTAVYYCAARRLYGSQRGYWGQGTQVTVSS | high polyreactivity
QVQLVESGGGLVQAGGSLRLSCAASGSIFYVNAMGWYRQAPGKERELVAAISVRGGRTYYADSVKGRFTISRDNAKNTVYLQMNILNPEDTAVYYCATRISTVGRYDYWGEGTQVTVSS | high polyreactivity
QVQLVESGGGLVQAGGSLRLSCAASGSIFSTYAMGWYRQAPGKERELVASISRRGGSTYYADSVKGRFTISRDNAKNTVYLQMNSLKPEDTAVYYCNASGGPYRFYYWGQGTQVTVSS | low polyreactivity
QVQLVESGGGLVQAGGSLRLSCAASGRTFARNAMGWYRQAPGKERELVASIRWRGGSTYYADSVKGRFTISRDNAKNTVYLQMNRLKPEDTAVYYCATRSPYYVGRGYISYDYWGQGTQVTVSS | high polyreactivity
QVQLVESGGGLVQAGGSLRLSCAASGRIFVSNTMGWYRQAPGKDWEWVAAITSVGSTNYADSVKGRFTISRDHAKNTVYLQMNSLKPEDTAVYYCNADNPYSDGADSLGNYWGQGTQVTVSS | low polyreactivity
QVQLVESGGGLVQAGGSLRLSCAASGSTFFRYAMGWYRPAPGKEREFVAAISKRGGSTHYADSVKGRFTISRDNAKNTVYLQMNSLKPEDTAVYYCAASSFTSSYNFWGQGTQVTVSS | high polyreactivity
QVQLVESGGGLVQAGGSLRLSCAASGSTFLGYAMGWSRQAPGKERELVAAISWSGGSTYYADSVKGRFTISRDNAKNTVYLQMNRLKPEDTAVYYCNAVGYLDFEWGQGTQVTVSS | low polyreactivity
QVQLVESGGGLVQAGGSLRLSCAASGIIFPSYAMGWYRQAPGKERELVADISNDDSTNYADSVKGRFTISRDNAKNTVYLQMNSLKPEDTAVYYCNAEEWGFWWRYDYWGQGTQVTVSS | high polyreactivity
QVQLVESGGGLVQAGGSLRLSCAASGFIFVKNAMGWYRQAPGKESELVAVISTRGGRTYYADSVKGRFTISRDNAKNTVYLQMNSLKPEDTAVYYCAAGDQYKTRRNGYGYWGQGTQVTVSS | high polyreactivity
QVQLVESGGGLVQAGGSLRLSCAASGSIFGRYAMGWYRQAPGKERELVATITFRDTSTYYADSVKGRFTISRDTAKYTVLLLMNSLKPEDTAVYYCAAVRADLWDIARYDYWGQGTQETVSS | low polyreactivity
QVQLVESGGGLVQAGGSLRLSCAASGFTFRHNTMGWYRQAPGKERELVAAISIGGRTYYADSVKGRFTISRDNAKNTVYLQMNSLKTEDSAVYYCANLSGGQSPGYDYWGQGTQVTVSW | high polyreactivity
QVQLEESGGGLVQARGSLRLSCAASGSTFNSYAMGWYRQAPGKERELVAAISSTGGNTYYADSVKGRFTISLDNAKNTVYLQMNSLKPEDTAVYYCNARRYGKVVRSSYNYWGQGTQVTVSS | high polyreactivity
QVQLVESGGGLVQAGGSLRLSCAPSGSIFYRNAMGWYIQAPGKERELVAAISWSAARTYYADSVKGRFTISRDNAKNTVYLQMNSLKPEDTAVYYCATLYSYNYWGQGTQVTVSS | high polyreactivity
EVQLVESGGGLVQAGGSLRLSCAASGRTFNRYTMGWYRQAPGKERELVAAISRGAGTNYADSVKGRFTISRDNAKNTVYVQMNSLKPEDTAVYYCNARPYGWYASHEYGYWGQGTQVTVSS | high polyreactivity
QVQLVESLGGLVQAGGSLRLSCAASGITFGWYAMGWYRQAPGQERELVAAISPAGSTYYADSVKGRFTISRDNAKNTVYLQMNSLKPEDTAVYYWRYSAFRFSAMGYWGHGTQVTVSS | high polyreactivity
QVQLVESGGGLVQAGGSLRLSCAASGSTFPQYTMGWSRQAQGKERELVAAITSGGRTYYADSVKGRFTISRDNAKNTVYLQMNSLKPEDTAVYFCAAGYWYRYFYYTSSPYDYWGQGTQVTVSS | high polyreactivity
QVQLVESGGVLVQAGGSLRLSCAASGRIFYNYGMGWYIQAPGKERELVARITTGGRTNYADSVKGRFTISRDNAKNTVYLQMNSLKPEDTAVYYCNADGYHSRWYYYNYDYWGQGTQVTVSS | low polyreactivity
QLQLVESGGGLVQAGGSLRLSCAASGFIFETYAMGCYIQAPGKERELVAAISRGASTYYADSVKGRFTISRDNAKNTVYLQMNSLKPEYTAVYYCAAKRLSWHRYGYWGQGTQVTVSS | low polyreactivity

Sequence | polyreactivity (PSR sort gate)
QVQLVESGGGLVQAGGSLRLSSAASGFTFRAYTMGWYRQAPGKERELVAAISWSGSSTYYADSVKGRFTISRDTAKNTVYLQMNSLKPEDTAVYYCAARHWRRWFPYDYWGQGTQVTVSS | high polyreactivity
QVQLVESGGGLVQAGGSLRLSCAASGRIFHSYAMGWYRQAPGKERELVASITWDSTSTNYADSVKGRFTISRDNAKNTVYLQMNSLKPEDTAVYYCNADESRYGFGYDYWGQGTQVTVSS | low polyreactivity
QVQLVESGGGLVQAGGSLRLSCAASGSTFGANAMGWYRQAPGKERELVAAITRGVRTHYADSVKGRFTISRDNAKNTVYLQMNSLKPEDTAVYYCNARSYPRWLRYDYWGQGTQVTVSS | low polyreactivity
QVQLVESGAGLVQAGGSLRLSCAASGLTFVFYAMGWYRQAPGKERELVAAISSSGGSTNYADSVKGRFTISRDNAKNTVYLQMNSLKPEDTAVYYCAAETVSWYRYYYRGQGTQVTVSS | high polyreactivity
EVQIVESGGCLVQAGGSLGIRCAASGRIFNIYAMGWYRQAPGKERELFAAISRGGGSKYYADSVKGRFTISRDNAKKTVDLQLNRLKPVDTAVYYCNTDRFPSGRIHRYNYWGQGTQVSVSS | low polyreactivity
QVQLVESGGGLVQAGGSLRLSCAASGSIFTRYVMGWYRQAPGKERELVAAISGRGSSTYYADSVKGRFTISRDNAKNTVYLQMNSLKPEDTAVYYCAADRVRRPSPGGMDYWGQGTQVTVSS | high polyreactivity
QVQLVESGGGLVQAGGSLRLSCAASGFTFYGYAMGWYRQAPGKERELVADISYRGGSTYYADSVKGRFTISRDNAKNTVYLQMNRLKPEDTAVYYCAARATPTYYAGQREDYNYWGQGTQVTVSS | high polyreactivity
QVQLVESGGGLVQAGGSLRLSCAASGSTFFRYAMGWYRQAPGKEREFVAAITWSGTGTYYADSVKGRFTISRDNAKNTVYLQMNSLKPEDTAVYYCNAEPFDLWAFYYGYVYGYYHWGQGTQVTVSS | high polyreactivity
QVQLVESGGGLVQAGGSLRLSCAASGTTFGQYAKGWYRQAPGKERDLLAAISSGGRTNYADSVKGRFTISRDNAKNTVYLQMNCVKPEDSAVYDCAARYYFPFRRFRRMDYWGQGTQVTVSS | high polyreactivity
QVHLQESGGGLEQAGGSLSPSCAASGSISNGVPMGWYRQAPGEERELVATTVLGATTNYADSVKGRFTISRGNAKNPVYLQMNSLKPEETAVYYCAAPLRYDKGFSYWGQGTQVTVSS | low polyreactivity
QVQLVESGGGLVQAGGSLRLSCAASGRIIKFYAMGWNRQAPGKERELVAVIRSVTRTKYADSVKGRFTISRDNAKNTVYLQLNSLKPEDTAVYYCAAREVGKMDYWGQGTQVTVSS | low polyreactivity
QVHLVESGGGLVQAGGSLRLSCAASGSILTDNAMGWYRQAPGKERELVAAITSSGNTNYADSVKGRFTISRDNAKNTVYLQMNSLKPEDTAVYYCAADSYYKHWTDWLPVGEDYWGQGTEVTVSS | low polyreactivity
QVQLVESGGGLVQAGGSLRLSCAASGSIFHVNARGRYRQAPGKERELVAGISDGGSTYYADSVKGRFTISRDNAKNTVYLQMNSLKPEDTGVYYCAAESEQWYSYVLSYDWEYDYWGQGTQVTVSS | low polyreactivity
QVQLVESGGGLVQAGGSLRLSCAASGSIFYWYAMGWYRQAPGKERELVATITRGGSTNYADSVKGRFTISRDNAKNTVYLQMNSLKPEDTAVYYCAAQRVGHKRSTKLDYWGQGTQVTVSS | low polyreactivity
QVQLVESGGGLVQAGGSLRLSCAASGIIFPIYAMGWYRQAPGPERELVAAIDINGGRTYYADSVKGRFTISRDNAKNTVYLPMNSLKPEDTAVYYCNAEGGSYARLYGNYEYWGQGTQVTVSS | low polyreactivity
QVQLVESGGGLVQAGGSLRLSCAASGRIFGNYAKGWYRQAPGKERELVAAISGGGSTYYADSVKGRFTISRDNAKNTVYLQMNSLKPEDTAVYYCAARFLSSVFGRKGGYWGQGTQVTVSS | low polyreactivity
QVPLVESGGGLVQAGGSLRLSCAASGSIFYPYAMGWYRQAPGKERELVASITWSGGSTYYADSVKGRITISRDNATNSVYRQMNSLKPEDTAVYYCAADEKLYITGYDYWGQGTQVTVSS | low polyreactivity
QVQLVESGGGLVQAGGSLRLSCAASGRTFQFYVMGWYRQAPGKERELVASIRSGGSTNYADSVKGRFTISRDNAKNTVYLQMNSLKPEDTAVYYFAARVASPYYRYDFWGQGTQVTVSS | low polyreactivity
QVQLVESGGGLVQAGGSLRLSCAASGFTFSVYAMGWYRQAPGKERELVADIDWSGGSTYYADSVKGRFTISRDNAKNTVYLQMNSLNPEDTAVYYCAADYYYPDSYVQGTSGEYWGQGTQVTVSS | low polyreactivity
QVQLVESGAGIVQAGGSLRLCCAATGITFDFYAMGWYTQAPGKERELVAAISYSGTSTSYADSVKGRFTISRDNAKNTVYLQMNSLKPEDTAVYYCNARIGWTHSYYELDYWGQGTQVTVSS | low polyreactivity
QVQLVESGGGLVQAGGSLRLSCAASGTTFAYNAMGWYIQAPGKEREMVAAISTSGGSTNYADSVKGRYTISRDNAMNTVYLQMNSLKPEDTAVYYCAARPKTPSITRYGYWGQGTQVTVSS | high polyreactivity
